# Measurements published in article PMC9482650, “Quantitative fragmentomics allow affinity mapping of interactomes” (Nature Communications, 2022).
# T1: ARHGEF11, O15085
# T1 sequence (O15085 42-136, limits assumed, looked up): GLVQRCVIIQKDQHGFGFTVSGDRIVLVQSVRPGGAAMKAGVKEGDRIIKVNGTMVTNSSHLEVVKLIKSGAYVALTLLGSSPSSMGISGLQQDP
# T2: DFNB31_1, Q9P202
# T2 sequence (Q9P202 135-233, limits assumed, looked up): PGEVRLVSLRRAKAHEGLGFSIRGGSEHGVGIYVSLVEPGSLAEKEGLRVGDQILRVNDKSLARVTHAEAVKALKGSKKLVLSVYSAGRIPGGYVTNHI
# T3: DFNB31_2, Q9P202
# T3 sequence (Q9P202 274-371, limits assumed, looked up): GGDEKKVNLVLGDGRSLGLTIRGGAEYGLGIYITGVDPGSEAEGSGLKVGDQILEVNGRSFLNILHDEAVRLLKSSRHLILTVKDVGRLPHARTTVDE
# T4: GRIP1_3, Q9Y3R0
# T4 sequence (Q9Y3R0 247-346, limits assumed, looked up): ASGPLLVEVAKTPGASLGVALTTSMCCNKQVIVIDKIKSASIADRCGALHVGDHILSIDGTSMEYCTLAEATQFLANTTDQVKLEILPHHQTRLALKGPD
# T5: LIN7C, Q9NUP9
# T5 sequence (Q9NUP9 88-185, limits assumed, looked up): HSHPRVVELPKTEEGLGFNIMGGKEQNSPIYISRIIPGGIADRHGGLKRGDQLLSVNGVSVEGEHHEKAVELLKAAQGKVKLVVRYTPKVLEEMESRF
# T6: LNX2_3, Q8N448
# T6 sequence (Q8N448 463-564, limits assumed, looked up): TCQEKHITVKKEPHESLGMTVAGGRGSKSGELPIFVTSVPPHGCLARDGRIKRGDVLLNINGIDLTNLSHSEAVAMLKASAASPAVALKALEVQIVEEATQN
# T7: MPP2, Q14168
# T7 sequence (Q14168 180-250, limits assumed, looked up): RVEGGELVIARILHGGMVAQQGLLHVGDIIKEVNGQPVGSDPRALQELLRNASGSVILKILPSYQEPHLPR
# T8: PARD3B_1, Q8TEW8
# T8 sequence (Q8TEW8 196-299, limits assumed, looked up): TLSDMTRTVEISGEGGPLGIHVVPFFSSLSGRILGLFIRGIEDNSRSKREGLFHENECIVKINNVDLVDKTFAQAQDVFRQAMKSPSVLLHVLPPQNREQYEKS
# T9: RADIL, Q96JH8
# T9 sequence (Q96JH8 971-1071, limits assumed, looked up): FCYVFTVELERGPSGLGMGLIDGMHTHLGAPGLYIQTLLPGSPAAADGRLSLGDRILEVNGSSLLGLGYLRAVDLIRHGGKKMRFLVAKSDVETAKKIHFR
# T10: SIPA1L2, Q9P2F8
# T10 sequence (Q9P2F8 945-1036, limits assumed, looked up): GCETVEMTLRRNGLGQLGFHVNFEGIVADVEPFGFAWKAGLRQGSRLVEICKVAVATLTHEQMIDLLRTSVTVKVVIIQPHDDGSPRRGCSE
# T11: SNTG2, Q9NY99
# T11 sequence (Q9NY99 68-166, limits assumed, looked up): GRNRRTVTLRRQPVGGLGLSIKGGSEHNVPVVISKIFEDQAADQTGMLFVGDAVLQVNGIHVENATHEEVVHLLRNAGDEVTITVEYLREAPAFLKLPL
# T12: TJP3_3, O95049
# T12 sequence (O95049 375-456, limits assumed, looked up): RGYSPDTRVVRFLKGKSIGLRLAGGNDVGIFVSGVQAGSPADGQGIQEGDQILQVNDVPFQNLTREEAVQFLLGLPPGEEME
# Molecular target: T1, ARHGEF11, O15085
# Assay: holdup assay
# Design: key: below the threshold = too weak to quantify, mostly under pKd 3.1 to 4
# Conditions: plain residues with an end cap or a label only (N-terminal biotin on a linker: ado-ado)
row,Binder,pKd
1,"IDESKKEWLI [CNTNAP2, Q9UHC6]",below the threshold
2,"DTKNYKQTSV [CRIPT, Q9P021]",4.12

# Molecular target: CASK, O14936
# Sequence (O14936 487-570): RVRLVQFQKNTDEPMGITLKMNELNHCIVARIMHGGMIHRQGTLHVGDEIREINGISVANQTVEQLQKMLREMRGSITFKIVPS
# Assay: holdup assay
# Design: key: below the threshold = too weak to quantify, mostly under pKd 3.1 to 4
# Conditions: plain residues with an end cap or a label only (N-terminal biotin on a linker: ado-ado)
row,Binder,pKd
1,"IDESKKEWLI [CNTNAP2, Q9UHC6]",below the threshold
2,"DTKNYKQTSV [CRIPT, Q9P021]",below the threshold

# Molecular target: T2, DFNB31_1, Q9P202
# Assay: holdup assay
# Design: key: below the threshold = too weak to quantify, mostly under pKd 3.1 to 4
# Conditions: plain residues with an end cap or a label only (N-terminal biotin on a linker: ado-ado)
row,Binder,pKd
1,"IDESKKEWLI [CNTNAP2, Q9UHC6]",below the threshold
2,"DTKNYKQTSV [CRIPT, Q9P021]",4.32

# Molecular target: T3, DFNB31_2, Q9P202
# Assay: holdup assay
# Design: key: below the threshold = too weak to quantify, mostly under pKd 3.1 to 4
# Conditions: plain residues with an end cap or a label only (N-terminal biotin on a linker: ado-ado)
row,Binder,pKd
1,"IDESKKEWLI [CNTNAP2, Q9UHC6]",below the threshold
2,"DTKNYKQTSV [CRIPT, Q9P021]",3.74

# Molecular target: DLG1_2, Q12959
# Sequence (Q12959 314-412): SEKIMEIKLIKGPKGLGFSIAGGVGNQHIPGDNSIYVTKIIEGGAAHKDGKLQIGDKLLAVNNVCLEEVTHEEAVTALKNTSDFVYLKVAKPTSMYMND
# Assay: holdup assay
# Design: key: below the threshold = too weak to quantify, mostly under pKd 3.1 to 4
# Conditions: plain residues with an end cap or a label only (N-terminal biotin on a linker: ado-ado)
row,Binder,pKd
1,"IDESKKEWLI [CNTNAP2, Q9UHC6]",below the threshold
2,"DTKNYKQTSV [CRIPT, Q9P021]",5.07

# Molecular target: DLG5_1, Q8TDM6
# Sequence (Q8TDM6 617-713): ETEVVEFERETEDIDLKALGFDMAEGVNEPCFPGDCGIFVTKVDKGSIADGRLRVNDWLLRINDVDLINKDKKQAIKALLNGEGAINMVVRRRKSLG
# Assay: holdup assay
# Design: key: below the threshold = too weak to quantify, mostly under pKd 3.1 to 4
# Conditions: plain residues with an end cap or a label only (N-terminal biotin on a linker: ado-ado)
row,Binder,pKd
1,"IDESKKEWLI [CNTNAP2, Q9UHC6]",below the threshold
2,"DTKNYKQTSV [CRIPT, Q9P021]",below the threshold

# Molecular target: FRMPD2_1, Q68DX3
# Sequence (Q68DX3 770-861): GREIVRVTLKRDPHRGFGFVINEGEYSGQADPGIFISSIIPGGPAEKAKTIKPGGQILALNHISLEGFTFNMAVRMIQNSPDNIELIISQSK
# Assay: holdup assay
# Design: key: below the threshold = too weak to quantify, mostly under pKd 3.1 to 4
# Conditions: plain residues with an end cap or a label only (N-terminal biotin on a linker: ado-ado)
row,Binder,pKd
1,"IDESKKEWLI [CNTNAP2, Q9UHC6]",below the threshold
2,"DTKNYKQTSV [CRIPT, Q9P021]",below the threshold

# Molecular target: FRMPD3, Q5JV73
# Sequence (Q5JV73 12-100): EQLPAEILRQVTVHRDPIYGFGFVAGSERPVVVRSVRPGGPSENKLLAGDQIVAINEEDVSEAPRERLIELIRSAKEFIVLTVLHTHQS
# Assay: holdup assay
# Design: key: below the threshold = too weak to quantify, mostly under pKd 3.1 to 4
# Conditions: plain residues with an end cap or a label only (N-terminal biotin on a linker: ado-ado)
row,Binder,pKd
1,"IDESKKEWLI [CNTNAP2, Q9UHC6]",below the threshold
2,"DTKNYKQTSV [CRIPT, Q9P021]",below the threshold

# Molecular target: GIPC2, Q8TF65
# Sequence (Q8TF65 112-203): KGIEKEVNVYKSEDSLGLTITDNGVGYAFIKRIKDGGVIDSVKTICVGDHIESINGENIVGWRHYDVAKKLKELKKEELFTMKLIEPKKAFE
# Assay: holdup assay
# Design: key: below the threshold = too weak to quantify, mostly under pKd 3.1 to 4
# Conditions: plain residues with an end cap or a label only (N-terminal biotin on a linker: ado-ado)
row,Binder,pKd
1,"IDESKKEWLI [CNTNAP2, Q9UHC6]",below the threshold
2,"DTKNYKQTSV [CRIPT, Q9P021]",below the threshold

# Molecular target: T4, GRIP1_3, Q9Y3R0
# Assay: holdup assay
# Design: key: below the threshold = too weak to quantify, mostly under pKd 3.1 to 4
# Conditions: plain residues with an end cap or a label only (N-terminal biotin on a linker: ado-ado)
row,Binder,pKd
1,"IDESKKEWLI [CNTNAP2, Q9UHC6]",below the threshold
2,"DTKNYKQTSV [CRIPT, Q9P021]",below the threshold

# Molecular target: GRIP2_7, Q9C0E4
# Sequence (Q9C0E4 934-1023): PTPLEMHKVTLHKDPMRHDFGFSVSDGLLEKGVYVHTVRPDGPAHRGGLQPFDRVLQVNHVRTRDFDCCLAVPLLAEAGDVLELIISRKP
# Assay: holdup assay
# Design: key: below the threshold = too weak to quantify, mostly under pKd 3.1 to 4
# Conditions: plain residues with an end cap or a label only (N-terminal biotin on a linker: ado-ado)
row,Binder,pKd
1,"IDESKKEWLI [CNTNAP2, Q9UHC6]",4.45
2,"DTKNYKQTSV [CRIPT, Q9P021]",below the threshold

# Molecular target: Inadl_5, Q8NI35
# Sequence (Q8NI35 673-780): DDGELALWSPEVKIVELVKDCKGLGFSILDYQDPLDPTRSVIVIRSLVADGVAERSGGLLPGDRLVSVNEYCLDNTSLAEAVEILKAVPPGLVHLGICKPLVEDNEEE
# Assay: holdup assay
# Design: key: below the threshold = too weak to quantify, mostly under pKd 3.1 to 4
# Conditions: plain residues with an end cap or a label only (N-terminal biotin on a linker: ado-ado)
row,Binder,pKd
1,"IDESKKEWLI [CNTNAP2, Q9UHC6]",below the threshold
2,"DTKNYKQTSV [CRIPT, Q9P021]",below the threshold

# Molecular target: T5, LIN7C, Q9NUP9
# Assay: holdup assay
# Design: key: below the threshold = too weak to quantify, mostly under pKd 3.1 to 4
# Conditions: plain residues with an end cap or a label only (N-terminal biotin on a linker: ado-ado)
row,Binder,pKd
1,"IDESKKEWLI [CNTNAP2, Q9UHC6]",below the threshold
2,"DTKNYKQTSV [CRIPT, Q9P021]",3.5

# Molecular target: T6, LNX2_3, Q8N448
# Assay: holdup assay
# Design: key: below the threshold = too weak to quantify, mostly under pKd 3.1 to 4
# Conditions: plain residues with an end cap or a label only (N-terminal biotin on a linker: ado-ado)
row,Binder,pKd
1,"IDESKKEWLI [CNTNAP2, Q9UHC6]",below the threshold
2,"DTKNYKQTSV [CRIPT, Q9P021]",below the threshold

# Molecular target: MAGI1_2, Q96QZ7
# Sequence (Q96QZ7 456-580): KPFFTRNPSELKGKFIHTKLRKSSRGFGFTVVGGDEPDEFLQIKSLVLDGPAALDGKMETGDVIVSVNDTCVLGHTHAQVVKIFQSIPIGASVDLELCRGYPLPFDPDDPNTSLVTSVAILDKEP
# Assay: holdup assay
# Design: key: below the threshold = too weak to quantify, mostly under pKd 3.1 to 4
# Conditions: plain residues with an end cap or a label only (N-terminal biotin on a linker: ado-ado)
row,Binder,pKd
1,"IDESKKEWLI [CNTNAP2, Q9UHC6]",below the threshold
2,"DTKNYKQTSV [CRIPT, Q9P021]",4.32

# Molecular target: MAGI2_2, Q86UL8
# Sequence (Q86UL8 410-522): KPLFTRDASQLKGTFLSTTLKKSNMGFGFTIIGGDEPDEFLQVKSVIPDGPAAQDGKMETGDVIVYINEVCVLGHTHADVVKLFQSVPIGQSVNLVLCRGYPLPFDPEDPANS
# Assay: holdup assay
# Design: key: below the threshold = too weak to quantify, mostly under pKd 3.1 to 4
# Conditions: plain residues with an end cap or a label only (N-terminal biotin on a linker: ado-ado)
row,Binder,pKd
1,"IDESKKEWLI [CNTNAP2, Q9UHC6]",3.78
2,"DTKNYKQTSV [CRIPT, Q9P021]",4.55

# Molecular target: MAGI2_4, Q86UL8
# Sequence (Q86UL8 772-865): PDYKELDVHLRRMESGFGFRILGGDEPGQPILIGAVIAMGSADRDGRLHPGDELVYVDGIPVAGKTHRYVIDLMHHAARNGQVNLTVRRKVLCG
# Assay: holdup assay
# Design: key: below the threshold = too weak to quantify, mostly under pKd 3.1 to 4
# Conditions: plain residues with an end cap or a label only (N-terminal biotin on a linker: ado-ado)
row,Binder,pKd
1,"IDESKKEWLI [CNTNAP2, Q9UHC6]",3.47
2,"DTKNYKQTSV [CRIPT, Q9P021]",3.87

# Molecular target: MAST1, Q9Y2H9
# Sequence (Q9Y2H9 962-1065): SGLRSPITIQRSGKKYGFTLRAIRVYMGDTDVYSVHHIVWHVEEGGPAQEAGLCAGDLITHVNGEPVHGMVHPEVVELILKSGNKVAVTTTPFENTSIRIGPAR
# Assay: holdup assay
# Design: key: below the threshold = too weak to quantify, mostly under pKd 3.1 to 4
# Conditions: plain residues with an end cap or a label only (N-terminal biotin on a linker: ado-ado)
row,Binder,pKd
1,"IDESKKEWLI [CNTNAP2, Q9UHC6]",below the threshold
2,"DTKNYKQTSV [CRIPT, Q9P021]",4.82

# Molecular target: T7, MPP2, Q14168
# Assay: holdup assay
# Design: key: below the threshold = too weak to quantify, mostly under pKd 3.1 to 4
# Conditions: plain residues with an end cap or a label only (N-terminal biotin on a linker: ado-ado)
row,Binder,pKd
1,"IDESKKEWLI [CNTNAP2, Q9UHC6]",4.78
2,"DTKNYKQTSV [CRIPT, Q9P021]",below the threshold

# Molecular target: T8, PARD3B_1, Q8TEW8
# Assay: holdup assay
# Design: key: below the threshold = too weak to quantify, mostly under pKd 3.1 to 4
# Conditions: plain residues with an end cap or a label only (N-terminal biotin on a linker: ado-ado)
row,Binder,pKd
1,"IDESKKEWLI [CNTNAP2, Q9UHC6]",4.63
2,"DTKNYKQTSV [CRIPT, Q9P021]",3.48

# Molecular target: T9, RADIL, Q96JH8
# Assay: holdup assay
# Design: key: below the threshold = too weak to quantify, mostly under pKd 3.1 to 4
# Conditions: plain residues with an end cap or a label only (N-terminal biotin on a linker: ado-ado)
row,Binder,pKd
1,"IDESKKEWLI [CNTNAP2, Q9UHC6]",3.76
2,"DTKNYKQTSV [CRIPT, Q9P021]",below the threshold

# Molecular target: T10, SIPA1L2, Q9P2F8
# Assay: holdup assay
# Design: key: below the threshold = too weak to quantify, mostly under pKd 3.1 to 4
# Conditions: plain residues with an end cap or a label only (N-terminal biotin on a linker: ado-ado)
row,Binder,pKd
1,"IDESKKEWLI [CNTNAP2, Q9UHC6]",below the threshold
2,"DTKNYKQTSV [CRIPT, Q9P021]",below the threshold

# Molecular target: T11, SNTG2, Q9NY99
# Assay: holdup assay
# Design: key: below the threshold = too weak to quantify, mostly under pKd 3.1 to 4
# Conditions: plain residues with an end cap or a label only (N-terminal biotin on a linker: ado-ado)
row,Binder,pKd
1,"IDESKKEWLI [CNTNAP2, Q9UHC6]",below the threshold
2,"DTKNYKQTSV [CRIPT, Q9P021]",4.37

# Molecular target: TJP1_2, Q07157
# Sequence (Q07157 181-274): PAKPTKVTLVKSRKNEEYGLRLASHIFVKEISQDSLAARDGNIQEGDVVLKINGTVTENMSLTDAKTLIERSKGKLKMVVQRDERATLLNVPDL
# Assay: holdup assay
# Design: key: below the threshold = too weak to quantify, mostly under pKd 3.1 to 4
# Conditions: plain residues with an end cap or a label only (N-terminal biotin on a linker: ado-ado)
row,Binder,pKd
1,"IDESKKEWLI [CNTNAP2, Q9UHC6]",3.5
2,"DTKNYKQTSV [CRIPT, Q9P021]",below the threshold

# Molecular target: TJP2_1, Q9UDY2
# Sequence (Q9UDY2 24-128): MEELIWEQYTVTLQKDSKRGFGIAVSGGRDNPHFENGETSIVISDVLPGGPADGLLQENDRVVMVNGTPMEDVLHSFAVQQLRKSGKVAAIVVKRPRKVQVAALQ
# Assay: holdup assay
# Design: key: below the threshold = too weak to quantify, mostly under pKd 3.1 to 4
# Conditions: plain residues with an end cap or a label only (N-terminal biotin on a linker: ado-ado)
row,Binder,pKd
1,"IDESKKEWLI [CNTNAP2, Q9UHC6]",below the threshold
2,"DTKNYKQTSV [CRIPT, Q9P021]",below the threshold

# Molecular target: T12, TJP3_3, O95049
# Assay: holdup assay
# Design: key: below the threshold = too weak to quantify, mostly under pKd 3.1 to 4
# Conditions: plain residues with an end cap or a label only (N-terminal biotin on a linker: ado-ado)
row,Binder,pKd
1,"IDESKKEWLI [CNTNAP2, Q9UHC6]",below the threshold
2,"DTKNYKQTSV [CRIPT, Q9P021]",below the threshold
